Sequences and labels used below:
B1: Thermus thermophilus ClpB variant with truncated N-terminal domain, starting at residue 141 (Val) (domain or fragment)
chain: not shown
notes: ClpB, Thermus thermophilus, N-terminal domain truncated, starting at residue 141 (Val); numbering as in full-length TT ClpB; no cysteine replacement is printed; Theoretical MW of the hexamer 484.8 kDa (D1:p9); also called wt; dNClpB; source: E. coli, purified
B2: ClpB (N-terminally truncated, from residue 141) S359C-Y646C, labelled with Alexa Fluor 488 and Alexa Fluor 594 (domain or fragment)
chain: not shown
modifications: Alexa Fluor 488 C5 maleimide and Alexa Fluor 594 C5 maleimide on the cysteines at 359 and 646
notes: ClpB, Thermus thermophilus, N-terminal domain truncated, starting at residue 141 (Val); numbering as in full-length TT ClpB; The labelled protomer alone, as mixed 1:100 with unlabelled ClpB (Dm4); also called PL3; PL3 construct S359C-Y646C; source: E. coli, purified, labelled
B3: ClpB (N-terminally truncated, from residue 141) K204T (domain or fragment, Thermus thermophilus, UniProt Q9RA63 141-854, looked up)
chain: VQTEHAESTYNALEQYGIDLTRLAAEGKLDPVIGRDEEIRRVIQILLRRTKNNPVLIGEPGVGTTAIVEGLAQRIVKGDVPEGLKGKRIVSLQMGSLLAGAKYRGEFEERLKAVIQEVVQSQGEVILFIDELHTVVGAGKAEGAVDAGNMLKPALARGELRLIGATTLDEYREIEKDPALERRFQPVYVDEPTVEETISILRGLKEKYEVHHGVRISDSAIIAAATLSHRYITERRLPDKAIDLIDEAAARLRMALESAPEEIDALERKKLQLEIEREALKKEKDPDSQERLKAIEAEIAKLTEEIAKLRAEWEREREILRKLREAQHRLDEVRREIELAERQYDLNRAAELRYGELPKLEAEVEALSEKLRGARFVRLEVTEEDIAEIVSRWTGIPVSKLLEGEREKLLRLEEELHKRVVGQDEAIRAVADAIRRARAGLKDPNRPIGSFLFLGPTGVGKTELAKTLAATLFDTEEAMIRIDMTEYMEKHAVSRLIGAPPGYVGYEEGGQLTEAVRRRPYSVILFDEIEKAHPDVFNILLQILDDGRLTDSHGRTVDFRNTVIILTSNLGSPLILEGLQKGWPYERIRDEVFKVLQQHFRPEFLNRLDEIVVFRPLTKEQIRQIVEIQLSYLRARLAEKRISLELTEAAKDFLAERGYDPVFGARPLRRVIQRELETPLAQKILAGEVKEGDRVQVDVGPAGLVFAVPARVEA
notes: ClpB, Thermus thermophilus, N-terminal domain truncated, starting at residue 141 (Val); numbering as in full-length TT ClpB; also called A1; Walker A1; source: E. coli, purified
B4: ClpB (N-terminally truncated, from residue 141) double Walker B mutant E271A/E668A (domain or fragment, Thermus thermophilus, UniProt Q9RA63 141-854, looked up)
chain: B3 chain with T64K, E131A, E528A
notes: ClpB, Thermus thermophilus, N-terminal domain truncated, starting at residue 141 (Val); numbering as in full-length TT ClpB; also called BB; source: E. coli, purified
B5: ClpB (N-terminally truncated, from residue 141) E271A (domain or fragment, Thermus thermophilus, UniProt Q9RA63 141-854, looked up)
chain: B3 chain with T64K, E131A
notes: ClpB, Thermus thermophilus, N-terminal domain truncated, starting at residue 141 (Val); numbering as in full-length TT ClpB; also called B1; Walker B1; source: E. coli, purified
B6: κ-casein (natural protein)
chain: not shown
notes: κ-casein (Sigma Aldrich), unlabelled soluble model substrate protein; also called model substrate protein; source: bought: Sigma Aldrich
B7: ClpB (N-terminally truncated, from residue 141) E668A (domain or fragment)
chain: not shown
notes: ClpB, Thermus thermophilus, N-terminal domain truncated, starting at residue 141 (Val); numbering as in full-length TT ClpB; also called B2; Walker B2; source: E. coli, purified
B8: ClpB (N-terminally truncated, from residue 141) K347A (domain or fragment)
chain: not shown
notes: ClpB, Thermus thermophilus, N-terminal domain truncated, starting at residue 141 (Val); numbering as in full-length TT ClpB; also called hyper; hyperactive mutant; source: E. coli, purified

Data set [1] concerns the molecule itself. Kind of data set: native gel or EMSA; native gel (6% acrylamide), stained with Coomassie Blue; run at 4°C, 30 V, 2 mM ATP, 4 mM Mg2+; NativeMark Unstained Protein Standard. For orientation: In EMSA bound probe runs differently from free probe, usually more slowly.
Data set [2] deals with B1. Kind of data set: native gel or EMSA; native PAGE (6% acrylamide) of 1:100 labeled:unlabeled ClpB samples after the refolding and mixing procedure; stained with Coomassie Blue, panel a also imaged with a Typhoon scanner at 532 nm; run at 4°C, 30 V, 2 mM ATP, 4 mM Mg2+. The following applies: both partners purified.
Data set [3] concerns the molecule itself. The data set is described as above.
Data set [4] concerns the target T1, PL1 BB: reassembled ClpB hexamer with one Alexa-labelled S236C-S359C E271A/E668A protomer among unlabelled … (Thermus thermophilus, UniProt Q9RA63 141-854; Q9RA63 141-854, S236C | S359C | E271A | E668A | E271A | E668A, Alexa Fluor 488 C5 maleimide and Alexa Fluor 594 C5 maleimide on the cysteines at 236 and 359).
T1 construct: ClpB, Thermus thermophilus, N-terminal domain truncated, starting at residue 141 (Val); numbering as in full-length TT ClpB; ClpB, Thermus thermophilus, N-terminal domain truncated, starting at residue 141 (Val), unlabelled cysteine-less; With the 1:100 ratio most hexamers hold no labelled protomer; only hexamers with one labelled protomer give the signal; also called PL1 double-Walker B …
Nature of the data set: other fluorescence titration; single-molecule FRET on freely diffusing reassembled ClpB hexamers (1:100 labeled:unlabeled, ~50 pM labeled, ~5 nM total ClpB), increasing concentrations of unlabeled κ-casein; ratio of the H2MM-derived population of state 1 with and without casein fitted to a simple binding isotherm; 25 mM HEPES, 25 mM KCl, 10 mM MgCl2, 2 mM ATP, 0.01% Tween 20, pH 8, 22°C. The following applies: both partners purified.

Data set [5] has as its target T2, PL3 BB: reassembled ClpB hexamer with one Alexa-labelled S359C-Y646C E271A/E668A protomer among unlabelled … (Thermus thermophilus, UniProt Q9RA63 141-854; Q9RA63 141-854, S359C | Y646C | E271A | E668A | E271A | E668A, Alexa Fluor 488 C5 maleimide and Alexa Fluor 594 C5 maleimide on the cysteines at 359 and 646).
T2 construct: ClpB, Thermus thermophilus, N-terminal domain truncated, starting at residue 141 (Val); numbering as in full-length TT ClpB; ClpB, Thermus thermophilus, N-terminal domain truncated, starting at residue 141 (Val), unlabelled cysteine-less; With the 1:100 ratio most hexamers hold no labelled protomer; only hexamers with one labelled protomer give the signal; also called PL3 double-Walker B …
The data set is described as above. The settings on record: both partners purified.

Residue numbers refer to the chain shown, from its start. Numbers in names are those of the source.

Usually stoichiometry N stands for a count of units in the complex or per binding partner. On to B1, for which the “stoichiometry N” value in data set [1] was determined as 6.
For the molecule B2, the binding result in data set [2] was “binds”.
For B3, the binding result in data set [3] was “binds”.
For the molecule B4, the “stoichiometry N” value in data set [1] came out at 6.
Take B5: the binding result in data set [3] is reported as “binds”.
As usually defined, the Kd is the constant that tells how readily two partners part at equilibrium. B6: the dissociation constant Kd amounted to 2000 nM in data set [4] and 1600 nM in data set [5].
Take B7: in data set [3], the binding result is “binds”.
With B8, the binding result in data set [3] was “binds”.

The values above are taken from PMC10870172, “Single-molecule FRET probes allosteric effects on protein-translocating pore loops of a AAA+ machine” (Biophysical Journal, 2024).
